Results: PMC4026322

Test: immunofluorescence in HEK293 cells (data not shown)
Conditions: glycan lost; control: wild type

B1: ABCC6: N15D (protein)
parent chain: MAAPAEPCAGQGVWNQTEPEPAATSLLSLCFLRTAGVWVPPMYLWVLGPIYLLFIHHHGRGYLRMSPLFKAKMVLGFALIVLCTSSVAVALWKIQQGTPEAPEFLIHPTVWLTTMSFAVFLIHTERKKGVQSSGVLFGYWLLCFVLPATNAAQQASGAGFQSDPVRHLSTYLCLSLVVAQFVLSCLADQPPFFPEDPQQSNPCPETGAAFPSKATFWWVSGLVWRGYRRPLRPKDLWSLGRENSSEELVSRLEKEWMRNRSAARRHNKAIAFKRKGGSGMKAPETEPFLRQEGSQWRPLLKAIWQVFHSTFLLGTLSLIISDVFRFTVPKLLSLFLEFIGDPKPPAWKGYLLAVLMFLSACLQTLFEQQNMYRLKVLQMRLRSAITGLVYRKVLALSSGSRKASAVGDVVNLVSVDVQRLTESVLYLNGLWLPLVWIVVCFVYLWQLLGPSALTAIAVFLSLLPLNFFISKKRNHHQEEQMRQKDSRARLTSSILRNSKTIKFHGWEGAFLDRVLGIRGQELGALRTSGLLFSVSLVSFQVSTFLVALVVFAVHTLVAENAMNAEKAFVTLTVLNILNKAQAFLPFSIHSLVQARVSFDRLVTFLCLEEVDPGVVDSSSSGSAAGKDCITIHSATFAWSQESPPCLHRINLTVPQGCLLAVVGPVGAGKSSLLSALLGELSKVEGFVSIEGAVAYVPQEAWVQNTSVVENVCFGQELDPPWLERVLEACALQPDVDSFPEGIHTSIGEQGMNLSGGQKQRLSLARAVYRKAAVYLLDDPLAALDAHVGQHVFNQVIGPGGLLQGTTRILVTHALHILPQADWIIVLANGAIAEMGSYQELLQRKGALMCLLDQARQPGDRGEGETEPGTSTKDPRGTSAGRRPELRRERSIKSVPEKDRTTSEAQTEVPLDDPDRAGWPAGKDSIQYGRVKATVHLAYLRAVGTPLCLYALFLFLCQQVASFCRGYWLSLWADDPAVGGQQTQAALRGGIFGLLGCLQAIGLFASMAAVLLGGARASRLLFQRLLWDVVRSPISFFERTPIGHLLNRFSKETDTVDVDIPDKLRSLLMYAFGLLEVSLVVAVATPLATVAILPLFLLYAGFQSLYVVSSCQLRRLESASYSSVCSHMAETFQGSTVVRAFRTQAPFVAQNNARVDESQRISFPRLVADRWLAANVELLGNGLVFAAATCAVLSKAHLSAGLVGFSVSAALQVTQTLQWVVRNWTDLENSIVSVERMQDYAWTPKEAPWRLPTCAAQPPWPQGGQIEFRDFGLRYRPELPLAVQGVSFKIHAGEKVGIVGRTGAGKSSLASGLLRLQEAAEGGIWIDGVPIAHVGLHTLRSRISIIPQDPILFPGSLRMNLDLLQEHSDEAIWAALETVQLKALVASLPGQLQYKCADRGEDLSVGQKQLLCLARALLRKTQILILDEATAAVDPGTELQMQAMLGSWFAQCTVLLIAHRLRSVMDCARVLVMDKGQVAESGSPAQLLAQKGLFYRLAQESGLV
localisation_or_trafficking: no change
